{"source": "patent US20030152568A1", "target": "FGF receptor-3c on human osteosarcoma cell line (ATCC, CRL 1543) (human) (UniProt P22607)", "sequence (P22607 23-806)": "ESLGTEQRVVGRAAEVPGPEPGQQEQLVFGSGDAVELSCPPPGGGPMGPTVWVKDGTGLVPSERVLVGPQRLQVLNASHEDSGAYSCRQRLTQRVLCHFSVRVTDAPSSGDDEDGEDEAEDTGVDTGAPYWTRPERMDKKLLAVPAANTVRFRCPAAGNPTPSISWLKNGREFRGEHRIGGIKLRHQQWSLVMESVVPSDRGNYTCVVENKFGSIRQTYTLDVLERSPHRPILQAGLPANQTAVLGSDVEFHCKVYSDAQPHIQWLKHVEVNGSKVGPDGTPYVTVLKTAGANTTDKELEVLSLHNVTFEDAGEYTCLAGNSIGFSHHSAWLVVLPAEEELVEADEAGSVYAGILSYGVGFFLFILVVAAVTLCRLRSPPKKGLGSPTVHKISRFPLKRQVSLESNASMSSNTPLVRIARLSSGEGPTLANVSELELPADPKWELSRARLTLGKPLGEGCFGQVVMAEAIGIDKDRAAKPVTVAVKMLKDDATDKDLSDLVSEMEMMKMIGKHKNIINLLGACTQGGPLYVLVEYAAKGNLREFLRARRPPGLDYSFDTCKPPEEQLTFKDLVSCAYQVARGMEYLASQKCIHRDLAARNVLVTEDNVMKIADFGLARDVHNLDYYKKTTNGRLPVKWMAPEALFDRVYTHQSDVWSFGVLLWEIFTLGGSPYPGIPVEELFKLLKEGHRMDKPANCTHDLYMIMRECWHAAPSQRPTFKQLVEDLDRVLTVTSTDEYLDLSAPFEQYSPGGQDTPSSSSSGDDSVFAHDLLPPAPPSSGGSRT", "assay": "cell-based or functional assay"}
{"substance": "FGF-18-saporin conjugate", "values": [{"measurement": "LD50 (sensitivity of cell lines to the FGF-18-saporin conjugate)", "result": "< 1", "unit": "nM"}]}
